Laboratory results taken from the DeepSol protein solubility set.

Experiment: soluble on expression in E. coli; label from the status in PepcDB or PDB records
With “MAHHHHHHMLVRRSLSKKRSVIRGRNSRDLRVSSYIRVCTCTYVRNLCCRRLAYYDVCGESWSHARPFSPNSAMDYSLSVFRVLCPFVKTFFLFTLPCLTEGEGRVKSLIRWWEKKTCAEILMSSHAYLGLLRFICDLYTSFKGYVSRWHCPARRTAVLSCLSAAIGADGGVGPWLLLFVRAAVLRVLSLRQHPQTTQGEGRLARLVQPNQSGGHERHQQ” the “soluble on expression in E. coli” value was “not soluble”. For “MKISLGPLLYCWEKQQVIDFYQQVANSQIPLVYLGEAVCSRRRELKWGDYLELAKMLKSAGKDVVLSTLALIEAPSEYTELKRQVDNGEFMIEANDMAAVYLAKEHKQPFVCGASINNYNRASLDILQRLGMQRFVMPVELSKTWLSQVVDKKPSFEVEVLGHGYLPLAHSARCFTARHSQLAKDSCETVCRQYSKGLLAQTQEAQPLLRLNGIQTQSASCVDLRSEISAMVKIGVDVFRVSPSSLACIAKADALVEALNSGAMDAQYPLSDEHCNGYWFGEAGLKSLS”, the “soluble on expression in E. coli” value was “soluble”. In the case of MDIYVCTVCGYEYDPAFEDLPDDWACPVCGASKDAFEKQ, the “soluble on expression in E. coli” value is reported as “soluble”. For “MAHHHHHHMQDDKINSKDDISSSSSCEENDENKNILNPPNRTKMSKGERRARKMLVKLGLKAIPNVHKVIIKKSQKMVFAVSNVEVYKVEGTDSYVIFGDAKTDDITNSINNFIPENLPKDVDVPVEPEINFEAADKEEQKVKDLDDENVGDVSMDDVELIMSQTKCSRDMAISALRKNNNDFVQSIMELSG”, the “soluble on expression in E. coli” value was “soluble”. For “MSEQVYSGVDQDEDGGLTPLGRIVIDAWVFGILPESEMCTGWSMSQMQNLYEEVYAAWGPYAHLPSRLPPELQQRHSFFYSQRITVAKNNGWDTDLSDES”, the “soluble on expression in E. coli” value was “not soluble”. In the case of “MNNNTLSDDNLYNIENWGEGYFRINSKGNIEISKKPGKPGVELQTIVDAADRAGLHLPLLIRCSDILHDRVHRIYQAFTQAREDTCYAGNYQLVYPIKVNQEQSVVRELLKSPDNQIGLEAGSKPELMAVIGMLGDHQSTIVCNGYKDTSYIRTALIAQQMGHKVFIVIEKKSELDIILKESARLQIKPTLGVRIRLVSKSAGKWENTGGVKSKFGLNAKQVLELILQLKANDMLDCLQLMHCHLGSQIANIHDIRHCMQEVARYYIELRQLNAPIGTIDVGGGLSVDYEGTRSNKGCSMNYSLVEYATHIMLALKHLCQEAEISEPDLISESGRALTAHHAVLISNITDVEIINKAPVLPEISEDDSHVIRDIYDTYQAITDSSPTEIYNYAAHSLNEAHSLFKHGVISLQEKAKVEAFYTNICMEIKDKLDEENPSEKALLMRINECMAAKIFCNISFFQSIPDAWAIGQIFPVAPISQLNRTLSMHSILQDLTCDSDGTIKQYPGSSCVTTTLMLPSYDINNPYNIGFFLVGAYQEILGNLHNLFGDTNSLDVKLSDDGQFELDDLVSGDTVTNVLNLAHFDTKKLIQSYEKQLIKSELPKEKALSYLNELRSIFSQLTYLDGNIAQLEHHHHHH”, the “soluble on expression in E. coli” value is reported as “soluble”. For “MAHHHHHHMSGKLEDIGELVLLIGDFHSPMRNLGLPDCFKDLLKTDKIKHVLCTGNVGCRENLELLKNIADSVHITKGDMDDEYDFPEDISLTIGDFKMSLIHGHQIIPWGDTNALLQWQKKHDSDIVISGHTHKNSIVRYEGKYFINPGSATGAFQPWLSQPTPSFILMAVAKSSIVVYVYEEKNGKTNVEMSELQK”, the “soluble on expression in E. coli” value was “not soluble”. In the case of “MGSDKIHHHHHHMAEKKEFVVGIDLGTTNSVIAWMKPDGTVEVIPNAEGSRVTPSVVAFTKSGEILVGEPAKRQMILNPERTIKSIKRKMGTDYKVRIDDKEYTPQEISAFILKKLKNDAEAYLGGEIKKAVITCPAYFNDAQRQATKEAGIIAGLEVLRIINEPTAAALAYGLDKAGKEEKVLVYDLGGGTFDVSILEIGEGVIEVIATAGNNHLGGDDFDQRLIDWMAEEFKKQHGIDLREDRQALQRLRDAAEKAKIELSTKMETDVSLPFIAVSPSGQPLHLEMRITRSLFESLTRDLVEMTRGPIEQALNDAKLSPQDIDEIILVGGMTRVPMVQRFIKEFFGKEPNKSVNPDEAVAIGAAIQAAILAGTEGAKGRDIVLVDVTPLTLGIEVKGGLFEPIIPRNTKIPVRKSKIFTTVEDGQTEVEIRVYQGERPIARENIFLGSFKLVGIPPAPRGVPQIEVTFDIDSDGIVHVSAKDLGSGKEQSMVVTGRHKLSEDEIKRMIEDAKRYEEQDKRLKEEIELKNRADDLAYSVEKTLKEHGDKIPADLKSRLEDMIRELRDAINRNDIPKVKMLFDDLQKESMKIGEYLYKSATGGETSNQ”, the “soluble on expression in E. coli” value is reported as “not soluble”. With “MERSALVTGGASGLGRAAALALKARGYRVVVLDLRREGEDLIYVEGDVTREEDVRRAVARAQEEAPLFAVVSAAGVGLAEKILGKEGPHGLESFRRVLEVNLLGTFNVLRLAAWAMRENPPDAEGQRGVIVNTASVAAFEGQIGQAAYAASKGGVVALTLPAARELAGWGIRVVTVAPGLFDTPLLQGLPEKAKASLAAQVPFPPRLGRPEEYAALVLHILENPMLNGEVVRLDGALRMAPR” the “soluble on expression in E. coli” value was “soluble”. With “MKTGKELKPGTVLRIDNDPWLVQKAEFTKSGRNSAIMKTKLKNLLTGYKTETVYGADDKLDDVILDRKEATLSFINGDEYTFMDTTDYTMYELNAEDIEAVLPYIEEGMEDVCEAVFFEGRLVSVELPTTISRKVVYTENAARGDTSGKVMKPAKLANGTEISVADFIQIDEWIDIDTRDNSFKGRSKKLEHHHHHH” the “soluble on expression in E. coli” value was “soluble”. For “AIAKPTNKAQDDDAVFALSTEVNHKLDLHQSSAEALRLAGVYTRQSCVLDLYHGYRSDDEDTEPDEEDGRLQTVREYHENGMLKLMRTFVRRLRRDATDPTAESSYYDRVVEEKHYDPSGICRVDMHFALGQPYLYRKHYYPNNRLKSEKVFFVEDEETMRARKVGHWRTYYENGNIQSEIIYNKDGVRCGFCKRYAIDGAIEWVKDYTREQEERLQAFNAKRGNLDLTVTDAARVLGLEGDWCSHVVNRTFRSKCAPLHPDWRRTAGDKAGETWEEEQRTEAFIRLSRAREVLLKFLETHPRECSCERGGA”, the “soluble on expression in E. coli” value was “soluble”. In the case of “MVNIPNFIDKVLSVNDTSNASLTHCIKEADIDGVIEECKDILSAQATMVEVQAPIAVCGDIHGQYTDLLRIFNRCSFPPDQNYLFLGDYVDRGRQQLEVICLLMAYKVRYPNGFFILRGNHECASINRTYGFYDECKRRYSLALYNEFQNLFNSLPLCAMISGRIFCMHGGLSPELVSWTQLAKIIRPFDPPNACLAMDLLWADPENNHTGWGKNSRGVSYIFGANVVKDFTEKMNIDLIARGHQVVQDGYEFFADKRLVTIFSAPKYCGEFDNNAGIMIVDERLIISFEILKPAMREVKIQARAAAKNKSTRSILVSSRGPKSKKG”, the “soluble on expression in E. coli” value is reported as “not soluble”. In the case of “MKIKIFIITSLIILTSVSCRRNVFNPSIPNRTQFVEDPIANLSIPSKDAAVEVIPVESIYKTGQTSLIYNWYIHFFDFNGKYYLTARDKCSYDSANKTMIITNNSYYNLLEIDVNDNFYMKEIRTNIDSSIPDDNRIINAFTKIVNGEAYTNADTIFIQDGGKYYSSKNIITWTEISQIPSDASKKEATDQYKIPITAQNGKTYTYVYASGAREFSISRLSDRMKQLAKRLETKFDFKEEDFNNHHMFDIGLNENGSSNPDFRLNPTNYLNNDTNYVYMGATDAAGQLWLLPVKKNGKDYLVRLPEHGGPELYIISDLQNDMNTYQTKAQESLTKALSLAASGGDTSAIEDACYESILNDANYKANKYFLDVIDKMGAKVNFGTTVYATSSKPITHYVIDIVDIQKD”, the “soluble on expression in E. coli” value is reported as “not soluble”. For “SPSETLWEIAKAEVEKRGINGSEGDGAEIAEKFVFFIGSKNGGKTTIILRCLDRDEPPKPTLALEYTYGRRAKGHNTPKDIAHFWELGGGTSLLDLISIPITGDTLRTFSLVLVLDLSKPNDLWPTMENLLQATKSHVDKVIMKLGKTNAKAVSEMRQKIWNNMPKDHPQDHELIDPFPVPLVIIGSKYDVFQDFESEKRKVICKTLRFVAHYYGASLMFTSKSEALLLKIRGVINQLAFGIDKSKSICVDQNKPLFITAGLDSFGQIGSPPVPENDIGKLHAHSPMELWKKVYEKLFPPKSINTLKDIKDPARDPQYAENEVDEMRIQKDLELEQYKRSSSKSWKQIELDS”, the “soluble on expression in E. coli” value was “soluble”. With “MMLVTAHDMPIFAPTCNLMTISHQPLPSHLVRKSSSLHIAASTIHVKFIVRSHVIKMIAGIFLVCECHAKGGANSITASKQSPIIADLYDMKILIVFCLSYTNLIASKVKKQ” the “soluble on expression in E. coli” value was “soluble”. In the case of “MGSDKIHHHHHHMNGKTIILANPRGFCAGVDRAISIVERALEEFGAPVYVRHEVVHNKFVVDNLREKGAVFIEDLAEVPPGATLVYSAHGVSKAVQQEAAERGFRVFDATCPLVTKVHKEVARLDAQDCEIIMIGHKGHAEVEGTMGQLAPGKMLLVETVGDVAKLEVRNPDKLAYVSQTTLSVDETKDIIAALNARFPNIRNPHKEDICYATTNRQTAVKELAEQCDIVIVVGSPNSSNSNRLREVAASRGIDAYMVDNASYLQRTWFEGKSKVGVTAGASAPEVLVREVLATIRGWGHETVREGGGAEESIVFVLPKELRREGETKPDLCKR”, the “soluble on expression in E. coli” value is reported as “not soluble”. With “QFLQKQHFLILGLAKSGYAAASILHEKGIYVAVNDQKPFEENEPAQKLSEKGIEVVCGEHPVSLFDQHQITILIKNPGIPYENIMVQEAEKRGIPVW” the “soluble on expression in E. coli” value was “not soluble”. With “MNRMRWVGEGDIWDLDMSTPVTLEGTARAVPDDPLPLGLSRGTRLSRPKQVEFFHRFMASPLIPSFSPIRPNTGDGGGGGFSLQRVLTLPFSNNWLVSLLGQFDVQRFVTEIDKTKAFGRGSSSTVASRLNTIGKHLKDKSLYALGFCSEFLLSPDDTLLLSYDAYKGDLDKNPRAKAIFNHEFPLHNLTAEAVWPGLFVDKHGEYWDVPLSMAIDLASLPAESGPSYHLCLHHNSGSPKKLHSDTMEVPPPSLLPGLSLKSAVSYRTNMDLWRGTTPKLETCKPYDVFLSSPHVAVSGIIGSVMTAAFGENSIRSKFENDSEGVGGFSLHFPSVNSGFMADALGRASLTAQYGNFQKFFFDLTRFHARLDFPHGLRFLTGATSVAQDLLNSRQPSLEAFQKICPEVLVSLQQQIVGPFSFKVESGIEIDLRNGANPVTVDKTVFAIEYALQVLLSAKAVVSYSPKQNEFMVELRFFET” the “soluble on expression in E. coli” value was “soluble”. With “MEQRTRLALLKEIAEFLNEETEMYSMTQGALKYLIEGSNFTTGWIFFINSVGEHELVSHVALPQSLTADHCHYIKDGSCWCVKAFNQRRLMKASNIVNCSRINLASKAFPSQNDNITHHATVPLKSGQEQFGILNVASPNTEIYSDEDLELLESVAFQLGSAIKRIYLTDREKEAAKINERNRLARDLHDSVNQMLFSVKLTAHAAYGMSNESIAKQAFKTIEKTSQNAVNEMRALIWQLKPVGLEQGLIHALTAYSKLMHIQLNVNVEGLIDLSNEIEENIYRALQECINNVKKHADTNKMDLTLKQMNDILYIDVIDYGQGFEIDNVQIASSHGINNIKQRVKLLRGKVTFHSQPTKGTQIQFTIPIK” the “soluble on expression in E. coli” value was “not soluble”. In the case of “MGRGEHKEHKRKRSRSKERKRSRSRSPRGSREHREHRDRDRDRERRRERDTDREKTRDREKQRDAEKKKEKESKTAIFEMEESRNDTEEVMKMKEAELLQGVERRRRNVEKWRAQKKKEELDLQSEQSDEKSEKKPWNLEDEDDEDEFDIKNEGISEENPVKMEEKVEKMDTDDEEDPLDAFMKEIATKNAKKTGNSTQKASGIVTIVQEEKPEPEKGQVLENEDNMDMVIDDFDIETAAASLCHKGRMLAQTDHSKVYYRKFKKNFYIETEEIRRMTKAEVKAYREELDSITVKGIDCPKPIKTWAQCGVNLKMMNVLKKFEYSKPTSIQAQAIPSIMSGRDVIGIAKTGSGKTLAFLLPMFRHILDQPELEEGDGPIAVILAPTRELAMQTYKEANKFAKPLGLKVACTYGGVGISEQIADLKRGAEIVVCTPGRMIDVLAANSGKVTNLRRVTYLVLDEADRMFDKGFEPQIMKVVNNIRPDKQTVLFSATFPRHMEALARKVLDKPVEILVGGKSVVCSDITQNAVICAEHQKFLKLLELLGMYYEEGSSIVFVDKQEKADDIVDQLMRTGYNSVAPLHGGIDQHDRDSSIADFKTGVIKVLVATSVAARGLDVKNLILVVNYDCPNHYEDYVHRVGRTGRAGRKGYAYTFVLPEHQEKMAGEICRAFETAGCKPPADLKAMFERFKSEMAAEGKEVKLGGKGFEGSGYKYDEGEAEADANKKRMTRLTAQLQRGGTQARYKV”, the “soluble on expression in E. coli” value is reported as “not soluble”.
